This data set can be described thus: self-splicing fitness, log relative to wild type (ln ratio); higher = more splicing; Tetrahymena group I intron in knt gene, E. coli kanamycin selection, DiMSum; sequences stand for … in CUCUCU…GGAGGGAAAAGUUAUCAGGCAUGCACCUGGUAGCUAGUCUUUAAACCAAUAGAUUGCAUCGGUUUAAAAGGCAAGACCGUCAAAUUGCGGGAAAGGGGUCAACAGCCGUUCAGUACCAAGUCUCAGGGGAAACUUUGAGAUGGCCUUGCAAAGGGUAUGGUAAUAAGCUGACGGACAUGGUCCUAACCACGCAGCCAAGUCCUAAGUCAACAGAUCUUCUGUUGAUAUGGAUGCAGUUCACAGACUAAAUGUCGGUCGGGGAAGAUGUAUUCUUCUCAUAAGAUAUAGUCGGACCUCUCCUUAAUGGGAGCUAGCGGAUGAAGUGAUGCAACACUGGAGCCGCUGGGAACUAAUUUGUAUGCGAAAGUAUAUUGAUUAGUUUUGGAGUACUCGUGGUCG
The essentials: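 Fitness was computed with DiMSum as the error-weighted combination of replicate fold changes, kanamycin versus none, each normalised to wild type. The library randomised all eight intron nucleotides of the P1ex region, with the intron placed in the knt kanamycin-resistance gene on pET-22b(+) in E. coli BL21(DE3). Six replicate transformations were grown overnight at 37°C or 30°C on LB agar with or without 25 μg/mL kanamycin, plus 100 μg/mL carbenicillin, 50 μM IPTG and 0.2% rhamnose. Pooled colonies were amplicon-sequenced on an Illumina HiSeq 2500.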

± gives the uncertainty stated by the source.

On to GUUAAGCAAUAUUACGAAAG, for which the “self-splicing fitness (ln)” value by setting is: (30 °C) -1.91 ± 0.14; (37 °C) -1.5 ± 0.22. Turning to GGAGAGCAAUAUUACGCGGA, the “self-splicing fitness (ln)” value (37 °C) was -1.29 ± 0.34. Take UCUUAGCAAUAUUACGCUUG: the “self-splicing fitness (ln)” value (30 °C) is -2.43 ± 0.24 and the “self-splicing fitness (ln)” value (37 °C) is -1.89 ± 0.23.

On to UACGAGCAAUAUUACGAGGG, for which the “self-splicing fitness (ln)” value is -1.82 ± 0.12 (30 °C) and -2.11 ± 0.27 (37 °C). The corresponding values for GUAGAGCAAUAUUACGGCCU are -0.447 ± 0.11 and -0.0153 ± 0.14. On the same counts, the results for GUUAAGCAAUAUUACGAACU are -2.35 ± 0.2 and -0.527 ± 0.2. The corresponding values for GGCUAGCAAUAUUACGGCAU are -0.0766 ± 0.11 and 0.833 ± 0.13. With GCGUAGCAAUAUUACGGGAA, the “self-splicing fitness (ln)” value (30 °C) was -1.38 ± 0.27 and the “self-splicing fitness (ln)” value (37 °C) was -1.44 ± 0.34. The corresponding values for CACAAGCAAUAUUACGAAUG are -1.79 ± 0.074 and -1.2 ± 0.073. In the case of UAUAAGCAAUAUUACGGAGC, the “self-splicing fitness (ln)” value (37 °C) is -2.14 ± 0.28. As to GCGUAGCAAUAUUACGGGCA, the “self-splicing fitness (ln)” value is -0.858 ± 0.2 (30 °C) and -0.854 ± 0.17 (37 °C). On the same counts, the results for UUCGAGCAAUAUUACGAUGA are -0.824 ± 0.12 and -0.0637 ± 0.1.

In the case of ACCGAGCAAUAUUACGGUGA, the “self-splicing fitness (ln)” value is -3.07 ± 0.18 (30 °C) and -1.48 ± 0.13 (37 °C). UAGGAGCAAUAUUACGGGUC: for the setting “30 °C”, the “self-splicing fitness (ln)” value was -2.64 ± 0.19. Take UCUAAGCAAUAUUACGCGAA: the “self-splicing fitness (ln)” value runs as follows: (30 °C) -3.03 ± 0.2; (37 °C) -1.69 ± 0.16. With CCUAAGCAAUAUUACGGACG, the “self-splicing fitness (ln)” value is, setting by setting: (30 °C) -1.15 ± 0.059; (37 °C) -0.303 ± 0.08. The corresponding values for AAAAAGCAAUAUUACGAAAC are -3.11 ± 0.22 and -2.36 ± 0.16.

With CGCUAGCAAUAUUACGGCGG, the “self-splicing fitness (ln)” value reads like this: (30 °C) -1.68 ± 0.089; (37 °C) -0.662 ± 0.11. GCAGAGCAAUAUUACGGAGU: the “self-splicing fitness (ln)” value was -3.24 ± 0.2 (30 °C) and -2.05 ± 0.27 (37 °C).

Turning to GUAGAGCAAUAUUACGAAUC, the “self-splicing fitness (ln)” value (30 °C) is -1.28 ± 0.2 and the “self-splicing fitness (ln)” value (37 °C) was -0.812 ± 0.29. As to CUAUAGCAAUAUUACGCAGG, the “self-splicing fitness (ln)” value (30 °C) is -2.75 ± 0.34.

For CGGUAGCAAUAUUACGCGAA, the “self-splicing fitness (ln)” value is, setting by setting: (30 °C) -2.83 ± 0.25; (37 °C) -1.28 ± 0.19. On to UCGCAGCAAUAUUACGACAU, for which the “self-splicing fitness (ln)” value reads like this: (30 °C) -3.604 ± 0.025; (37 °C) -2.56 ± 0.037. With CAUGAGCAAUAUUACGCUUU, the “self-splicing fitness (ln)” value (37 °C) is -3.02 ± 0.24.

As for GCGUAGCAAUAUUACGUUUG, the “self-splicing fitness (ln)” value (30 °C) was -3.14 ± 0.21 and the “self-splicing fitness (ln)” value (37 °C) was -1.37 ± 0.15. On the same counts, the results for AAGGAGCAAUAUUACGGCGA are -2.84 ± 0.32 and -0.936 ± 0.3. On the same counts, the results for ACUUAGCAAUAUUACGGUUA are -1.27 ± 0.17 and -0.752 ± 0.15. AGCCAGCAAUAUUACGGCUC: the “self-splicing fitness (ln)” value is, setting by setting: (30 °C) -2.52 ± 0.18; (37 °C) -3.14 ± 0.31. On the same counts, the results for GUCGAGCAAUAUUACGGAGU are -3.59 ± 0.19 and -0.791 ± 0.094.

As for UACGAGCAAUAUUACGCCCG, the “self-splicing fitness (ln)” value is -3.1 ± 0.18 (30 °C) and -2.02 ± 0.17 (37 °C). The corresponding values for UACGAGCAAUAUUACGAUUA are -1.13 ± 0.14 and -0.74 ± 0.12. On the same counts, the results for CUUAAGCAAUAUUACGCACG are -1.62 ± 0.14 and -0.394 ± 0.16. The corresponding values for CAGUAGCAAUAUUACGUAUC are -3.18 ± 0.33 and -2.2 ± 0.25. Consider GUAAAGCAAUAUUACGCUUA, for which the “self-splicing fitness (ln)” value by setting is: (30 °C) -1.27 ± 0.11; (37 °C) -0.77 ± 0.14. On the same counts, the results for AGGAAGCAAUAUUACGAAGA are -2.9 ± 0.34 and -1.61 ± 0.32. On the same counts, the results for UAACAGCAAUAUUACGGGUC are -3.89 ± 0.17 and -2.62 ± 0.2. As to AUGGAGCAAUAUUACGCCCU, the “self-splicing fitness (ln)” value is, setting by setting: (30 °C) -2.84 ± 0.3; (37 °C) -2.13 ± 0.37. The corresponding values for UUCUAGCAAUAUUACGGUUC are -2.74 ± 0.26 and -2.44 ± 0.27.

Consider AACGAGCAAUAUUACGAGGC, for which the “self-splicing fitness (ln)” value is -2.92 ± 0.29 (30 °C) and -2.97 ± 0.48 (37 °C). On the same counts, the results for GCCUAGCAAUAUUACGUCAU are -2.73 ± 0.2 and -1.4 ± 0.17. On the same counts, the results for AAACAGCAAUAUUACGAUUG are -3.35 ± 0.12 and -1.76 ± 0.12.

ACUUAGCAAUAUUACGUCGG: the “self-splicing fitness (ln)” value reads like this: (30 °C) -2.34 ± 0.14; (37 °C) -1.59 ± 0.17. The corresponding values for GUCGAGCAAUAUUACGUCUA are -1.76 ± 0.46 and -0.965 ± 0.33. On the same counts, the results for AACCAGCAAUAUUACGAGGA are -2.25 ± 0.13 and -1.51 ± 0.11. The corresponding values for UUACAGCAAUAUUACGAGCA are -1.65 ± 0.14 and -0.698 ± 0.11. In the case of CUUCAGCAAUAUUACGUUUU, the “self-splicing fitness (ln)” value is -1.52 ± 0.13 (30 °C) and -2.46 ± 0.26 (37 °C). For GUAGAGCAAUAUUACGGGGC, the “self-splicing fitness (ln)” value (37 °C) is -1.52 ± 0.36.

With ACGGAGCAAUAUUACGCCUG, the “self-splicing fitness (ln)” value (30 °C) is -3.41 ± 0.2 and the “self-splicing fitness (ln)” value (37 °C) is -1.52 ± 0.19. For the sequence AUACAGCAAUAUUACGAACA, the “self-splicing fitness (ln)” value was -1.78 ± 0.17 (30 °C) and 0.157 ± 0.14 (37 °C). The corresponding values for CGAUAGCAAUAUUACGCACA are -0.708 ± 0.088 and -0.0385 ± 0.12. On the same counts, the results for AGCUAGCAAUAUUACGUUCG are -2.57 ± 0.14 and -2.41 ± 0.23. For the sequence AGCUAGCAAUAUUACGGUAC, the “self-splicing fitness (ln)” value is -2.2 ± 0.26 (30 °C) and -1.1 ± 0.24 (37 °C). AUUUAGCAAUAUUACGGUUC: the “self-splicing fitness (ln)” value (37 °C) is -3.23 ± 0.43. On to CUUUAGCAAUAUUACGUAGU, for which the “self-splicing fitness (ln)” value is -3.52 ± 0.2 (30 °C) and -2.2 ± 0.22 (37 °C). On the same counts, the results for AGGGAGCAAUAUUACGGUCA are -2.38 ± 0.18 and -2.08 ± 0.21.

In the case of AUCAAGCAAUAUUACGCACG, the “self-splicing fitness (ln)” value was -2.1 ± 0.15 (30 °C) and -2.28 ± 0.18 (37 °C). On the same counts, the results for UGAGAGCAAUAUUACGCAUG are -1.65 ± 0.13 and -2.09 ± 0.18. The corresponding values for CAUGAGCAAUAUUACGCGUU are -4.13 ± 0.42 and -2.35 ± 0.26.

For GGAUAGCAAUAUUACGCUUC, the “self-splicing fitness (ln)” value (30 °C) is -3.86 ± 0.35.

With CCUCAGCAAUAUUACGUAGG, the “self-splicing fitness (ln)” value reads like this: (30 °C) -2.71 ± 0.18; (37 °C) -2.38 ± 0.3. The corresponding values for AACGAGCAAUAUUACGAGCA are -2.69 ± 0.18 and -1.97 ± 0.22. The corresponding values for CGGCAGCAAUAUUACGAUGU are -3.85 ± 0.31 and -3.14 ± 0.35. On the same counts, the results for ACCAAGCAAUAUUACGUUAU are -2.95 ± 0.087 and -2.04 ± 0.093. Regarding CAAGAGCAAUAUUACGUAGG, the “self-splicing fitness (ln)” value by setting is: (30 °C) -1.4 ± 0.069; (37 °C) -1.06 ± 0.1. Regarding UAAAAGCAAUAUUACGACCA, the “self-splicing fitness (ln)” value is -0.143 ± 0.092 (30 °C) and 0.711 ± 0.13 (37 °C).

As to CACAAGCAAUAUUACGAAGG, the “self-splicing fitness (ln)” value is -1.45 ± 0.096 (30 °C) and -0.993 ± 0.12 (37 °C). On the same counts, the results for GGCUAGCAAUAUUACGGUAA are -0.655 ± 0.15 and -0.0661 ± 0.14. The corresponding values for GCCCAGCAAUAUUACGCCCG are -4 ± 0.28 and -2.36 ± 0.18. The corresponding values for AUCGAGCAAUAUUACGGCCU are -3.22 ± 0.3 and -1.2 ± 0.17. Take UAUUAGCAAUAUUACGGCGC: the “self-splicing fitness (ln)” value was -1.74 ± 0.13 (30 °C) and -0.453 ± 0.17 (37 °C).

In the case of CACGAGCAAUAUUACGGGAG, the “self-splicing fitness (ln)” value is -3.53 ± 0.21 (30 °C) and -2.37 ± 0.18 (37 °C). GUCAAGCAAUAUUACGCGGA: the “self-splicing fitness (ln)” value is, setting by setting: (30 °C) -2.98 ± 0.17; (37 °C) -2.02 ± 0.16. GUGCAGCAAUAUUACGGAUU: the “self-splicing fitness (ln)” value was -1.66 ± 0.12 (30 °C) and -0.37 ± 0.11 (37 °C). With AAUUAGCAAUAUUACGGUCG, the “self-splicing fitness (ln)” value is, setting by setting: (30 °C) -0.573 ± 0.099; (37 °C) -0.259 ± 0.12. On the same counts, the results for GCACAGCAAUAUUACGUUGA are -0.837 ± 0.071 and -0.158 ± 0.072.

As for UUGCAGCAAUAUUACGGUUU, the “self-splicing fitness (ln)” value is, setting by setting: (30 °C) -1.37 ± 0.085; (37 °C) -0.603 ± 0.085. On the same counts, the results for CGGCAGCAAUAUUACGGCAA are -1.1 ± 0.083 and -1.27 ± 0.1.

The record behind these values is the supplement of paper PMC7877785.
